Assay [1] deals with T1, WT SARS2 RBD (SARS-CoV-2 Wuhan (MN908947), UniProt P0DTC2).
T1 construct: not shown: Fc (human IgG1), C-terminal, cleaved
The assay can be described thus: SPR. The note with it: both partners purified.

The target of assay [2] is T1, WT SARS2 RBD. The assay can be described thus: cell-based or functional assay.

B1: aRBD-2 (VHH)
VHH: QVQLVESGGGLVQAGGSLRLSCAASGRTYTMGWFRQAPGKEREFVAAMRWSDTDYADSLKGRFTISRDNANNAMYLQMNSLGPEDTAVYYCAAGEAWLARSTHHYDYWGQGTQVTVSS
As to B1, in assay [1], the binding result is reported as “binds”.

B2: aSA3 (VHH)
VHH: QVQLVESGGGLVQPGGSLRLSCAASGFTSDHYALAWFRQAPGKEREGVSCIDSDGNPFYADSVKGRFTGSRDNAKNTVYLQMNSLKLEDTAVYYCAAGLWYGRSLNSFDYDYWGQGTQVTVSS
Take B2: binding in assay [1] was put at a Kd of 51.9 pM. Moreover, the “IC50, neutralisation of WT SARS2 pseudovirus (blocks RBD-ACE2)” value in assay [2] came to 970 pM.

The values are drawn from PMC9734137 (Cell Discovery, 2022).
